Laboratory results taken from patent publication US20040203002.
Read-outs that look alike come from different tables or passages of the source.

Key:
[1] = target: Zif268 finger 2 variant REDV finger 2 alpha-helix variant REDV (full helix only in FIG. 1D) (Mus musculus) (UniProt P08046); experiment: ELONA; details: [none]; apparent Kd, phage ELISA, PBS/Zn, RT
[2] = target: Zif268 finger 2 variant RGPD finger 2 alpha-helix variant RGPD (full helix only in FIG. 1D) (Mus musculus) (UniProt P08046); experiment: ELONA; details: [none]; apparent Kd, phage ELISA, PBS/Zn, RT
[3] = target: Zif268 finger 2 variant LRHN finger 2 alpha-helix variant LRHN (full helix only in FIG. 1D) (Mus musculus) (UniProt P08046); details: [none]
[4] = target: Zif268 finger 2 variant REDV finger 2 alpha-helix variant REDV (full helix only in FIG. 1D) (Mus musculus) (UniProt P08046); details: [none]
[5] = target: Zif268 finger 2 variant RGPD finger 2 alpha-helix variant RGPD (full helix only in FIG. 1D) (Mus musculus) (UniProt P08046); details: [none]
[6] = target: Zif268 finger 2 variant KASN finger 2 alpha-helix variant KASN (full helix only in FIG. 1D) (Mus musculus) (UniProt P08046); details: [none]
[7] = target: Zif268 finger 2 variant KASN finger 2 alpha-helix variant KASN (full helix only in FIG. 1D) (Mus musculus) (UniProt P08046); experiment: ELONA; details: [none]; apparent Kd, phage ELISA, PBS/Zn, RT
[8] = target: Zif268 finger 2 variant LRHN finger 2 alpha-helix variant LRHN (full helix only in FIG. 1D) (Mus musculus) (UniProt P08046); experiment: ELONA; details: [none]; apparent Kd, phage ELISA, PBS/Zn, RT
[9] = target: Zif268 wildtype (three zinc fingers, phage displayed) (Mus musculus) (UniProt P08046); experiment: ELONA; details: apparent non-equilibrium Kd, phage ELISA, all values scaled to this one (3.0 nM); PBS/Zn, milk, Tween 20, salmon testes DNA, RT
[10] = apparent Kd interpolated from microarray signal 0.063
[11] = apparent Kd interpolated from microarray signal 0.122

Sequence: TATATAGCGGCGGCGTATATATCAAGTCAATCGGTCC (double strand) [Zif268 site GCG]
- Kd [1]: 0.011 µM
- Kd [2]: 0.017 µM

Sequence: TATATAGCGTACGCGTATATATCAAGTCAATCGGTCC (double strand) [Zif268 site TAC]
- Kd ([3]; apparent Kd interpolated from microarray signal 0.329): 0.17 µM

Sequence: TATATAGCGGATGCGTATATATCAAGTCAATCGGTCC (double strand) [Zif268 site GAT]
- Kd ([3]; apparent Kd interpolated from microarray signal 0.500): 0.072 µM

Sequence: TATATAGCGCCCGCGTATATATCAAGTCAATCGGTCC (double strand) [Zif268 site CCC]
- Kd [4, 10]: 1.7 µM
- Kd ([5]; apparent Kd interpolated from microarray signal 0.119): 0.77 µM

Sequence: TATATAGCGACTGCGTATATATCAAGTCAATCGGTCC (double strand) [Zif268 site ACT]
- Kd ([3]; apparent Kd interpolated from microarray signal 0.342): 0.16 µM
- Kd ([6]; apparent Kd interpolated from microarray signal 0.949): 0.26 µM

Sequence: TATATAGCGCGGGCGTATATATCAAGTCAATCGGTCC (double strand) [Zif268 site CGG]
- Kd [7]: 1.46 µM

Sequence: TATATAGCGGGCGCGTATATATCAAGTCAATCGGTCC (double strand) [Zif268 site GGC]
- Kd ([6]; apparent Kd interpolated from microarray signal 0.636): 1.4 µM

Sequence: TATATAGCGATTGCGTATATATCAAGTCAATCGGTCC (double strand) [Zif268 site ATT]
- Kd ([6]; apparent Kd interpolated from microarray signal 0.942): 0.27 µM
- Kd [8]: 0.24 µM

Sequence: TATATAGCGGAGGCGTATATATCAAGTCAATCGGTCC (double strand) [Zif268 site GAG]
- Kd ([4]; apparent Kd interpolated from microarray signal 0.120): 0.69 µM
- Kd ([5]; apparent Kd interpolated from microarray signal 0.151): 0.67 µM

Sequence: TATATAGCGCATGCGTATATATCAAGTCAATCGGTCC (double strand) [Zif268 site CAT]
- Kd [8]: 0.12 µM

Sequence: TATATAGCGATGGCGTATATATCAAGTCAATCGGTCC (double strand) [Zif268 site ATG]
- Kd ([4]; apparent Kd interpolated from microarray signal 0.069): 1.6 µM
- Kd ([5]; apparent Kd interpolated from microarray signal 0.136): 0.72 µM

Sequence: TATATAGCGGACGCGTATATATCAAGTCAATCGGTCC (double strand) [Zif268 site GAC]
- Kd ([6]; apparent Kd interpolated from microarray signal 0.652): 1.3 µM

Sequence: TATATAGCGTCTGCGTATATATCAAGTCAATCGGTCC (double strand) [Zif268 site TCT]
- Kd ([4]; apparent Kd interpolated from microarray signal 0.083): 1.5 µM
- Kd ([5]; apparent Kd interpolated from microarray signal 0.146): 0.69 µM

Sequence: TATATAGCGGCCGCGTATATATCAAGTCAATCGGTCC (double strand) [Zif268 site GCC]
- Kd [2]: 0.6 µM
- Kd ([4]; apparent Kd interpolated from microarray signal 0.084): 1.5 µM

Sequence: TATATAGCGGAAGCGTATATATCAAGTCAATCGGTCC (double strand) [Zif268 site GAA]
- Kd ([6]; apparent Kd interpolated from microarray signal 0.697): 1 µM

Sequence: TATATAGCGTGGGCGTATATATCAAGTCAATCGGTCC (double strand) [Zif268 site TGG]
- Kd [9]: 0.003 µM

Sequence: TATATAGCGCCTGCGTATATATCAAGTCAATCGGTCC (double strand) [Zif268 site CCT]
- Kd ([3]; apparent Kd interpolated from microarray signal 0.298): 0.2 µM
- Kd ([6]; apparent Kd interpolated from microarray signal 0.974): 0.25 µM

Sequence: TATATAGCGAGTGCGTATATATCAAGTCAATCGGTCC (double strand) [Zif268 site AGT]
- Kd ([3]; apparent Kd interpolated from microarray signal 0.449): 0.093 µM
- Kd ([6]; apparent Kd interpolated from microarray signal 0.862): 0.32 µM

Sequence: TATATAGCGAATGCGTATATATCAAGTCAATCGGTCC (double strand) [Zif268 site AAT]
- Kd [8]: 0.11 µM
- Kd [7]: 0.25 µM

Sequence: TATATAGCGGGTGCGTATATATCAAGTCAATCGGTCC (double strand) [Zif268 site GGT]
- Kd ([3]; apparent Kd interpolated from microarray signal 0.238): 0.26 µM
- Kd ([6]; apparent Kd interpolated from microarray signal 0.616): 1.6 µM

Sequence: TATATAGCGGTGGCGTATATATCAAGTCAATCGGTCC (double strand) [Zif268 site GTG]
- Kd [1]: 0.011 µM
- Kd ([5]; apparent Kd interpolated from microarray signal 0.175): 0.61 µM

Sequence: TATATAGCGCAGGCGTATATATCAAGTCAATCGGTCC (double strand) [Zif268 site CAG]
- Kd ([4]; apparent Kd interpolated from microarray signal 0.056): 1.8 µM
- Kd ([5]; apparent Kd interpolated from microarray signal 0.105): 0.82 µM

Sequence: TATATAGCGGGGGCGTATATATCAAGTCAATCGGTCC (double strand) [Zif268 site GGG]
- Kd ([6]; apparent Kd interpolated from microarray signal 0.612): 1.7 µM
- Kd [4, 11]: 1.1 µM
- Kd ([5]; apparent Kd interpolated from microarray signal 0.118): 0.77 µM

Sequence: TATATAGCGACGGCGTATATATCAAGTCAATCGGTCC (double strand) [Zif268 site ACG]
- Kd [4, 10]: 1.7 µM
- Kd ([5]; apparent Kd interpolated from microarray signal 0.143): 0.69 µM

Sequence: TATATAGCGCTCGCGTATATATCAAGTCAATCGGTCC (double strand) [Zif268 site CTC]
- Kd ([4]; apparent Kd interpolated from microarray signal 0.058): 1.8 µM
- Kd [5, 11]: 0.76 µM

Sequence: TATATAGCGGCTGCGTATATATCAAGTCAATCGGTCC (double strand) [Zif268 site GCT]
- Kd ([4]; apparent Kd interpolated from microarray signal 0.077): 1.6 µM
- Kd ([5]; apparent Kd interpolated from microarray signal 0.406): 0.22 µM

Sequence: TATATAGCGTGTGCGTATATATCAAGTCAATCGGTCC (double strand) [Zif268 site TGT]
- Kd ([3]; apparent Kd interpolated from microarray signal 0.384): 0.13 µM
- Kd ([6]; apparent Kd interpolated from microarray signal 0.856): 0.32 µM

Sequence: TATATAGCGCCGGCGTATATATCAAGTCAATCGGTCC (double strand) [Zif268 site CCG]
- Kd [1]: 0.88 µM
- Kd [2]: 0.25 µM

Sequence: TATATAGCGCGTGCGTATATATCAAGTCAATCGGTCC (double strand) [Zif268 site CGT]
- Kd ([3]; apparent Kd interpolated from microarray signal 0.330): 0.17 µM
- Kd ([6]; apparent Kd interpolated from microarray signal 0.848): 0.33 µM

Sequence: TATATAGCGGCAGCGTATATATCAAGTCAATCGGTCC (double strand) [Zif268 site GCA]
- Kd ([4]; apparent Kd interpolated from microarray signal 0.108): 1.3 µM
- Kd ([5]; apparent Kd interpolated from microarray signal 0.216): 0.51 µM

Sequence: TATATAGCGTATGCGTATATATCAAGTCAATCGGTCC (double strand) [Zif268 site TAT]
- Kd [8]: 0.0063 µM
- Kd [7]: 0.27 µM

Sequence: TATATAGCGTAGGCGTATATATCAAGTCAATCGGTCC (double strand) [Zif268 site TAG]
- Kd [8]: 0.11 µM
- Kd [7]: 0.39 µM

Sequence: TATATAGCGCGCGCGTATATATCAAGTCAATCGGTCC (double strand) [Zif268 site CGC]
- Kd ([6]; apparent Kd interpolated from microarray signal 0.774): 0.39 µM
